Target: PIF6-SnoopCatcher (SnoopCatcher-mCherry-PIF6(A. thaliana, amino acids: 1-100, Cys9Ser, Cys10Ser)-His6), coupled to 8-arm PEG-SnoopTag (A. thaliana) (UniProt Q8L5W7)
Assay: cell-based or functional assay

Chain of UniProt Q8L5W7 (Q8L5W7 other isoform, or with tags, fused parts or gaps C10S C10S): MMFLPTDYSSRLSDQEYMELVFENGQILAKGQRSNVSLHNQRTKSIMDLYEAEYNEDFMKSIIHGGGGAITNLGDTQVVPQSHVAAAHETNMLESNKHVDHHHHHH

reversible cross-linking and dissolution cycles (small amplitude oscillatory shear rheology, 660 nm / 740 nm): 5 times
Substance: PhyB-SpyCatcher (PhyB(A. thaliana, amino acids: 1-651)-SpyCatcher-His6), coupled to 8-arm PEG-SpyTag (from UniProt P14713 1-651)
